These results are taken from publication PMC12225019.

This assay has as its target TRIM21 (tripartite motif-containing 21) (UniProt P19474). The assay can be described thus: co-IP, immunoblot. As to conditions: reference: HMGA2 wild type; sites S105.

Consider “HMGA2 (high mobility group protein A2) (from UniProt P52926) HMGA2 S105A”, for which the “binding against the reference” value is on record as “weaker”.
